Reference: PMC9076019, “HSP90 N‐terminal inhibitors target oncoprotein MORC2 for autophagic degradation and suppress MORC2‐driven breast cancer progression” (Clinical and Translational Medicine, 2022)

B1: Full-length Flag-MORC2 (natural protein, human, UniProt Q9Y6X9-1 1-1032, looked up)
chain: MAFTNYSSLNRAQLTFEYLHTNSTTHEFLFGALAELVDNARDADATRIDIYAERREDLRGGFMLCFLDDGAGMDPSDAASVIQFGKSAKRTPESTQIGQYGNGLKSGSMRIGKDFILFTKKEDTMTCLFLSRTFHEEEGIDEVIVPLPTWNARTREPVTDNVEKFAIETELIYKYSPFRTEEEVMTQFMKIPGDSGTLVIIFNLKLMDNGEPELDIISNPRDIQMAETSPEGTKPERRSFRAYAAVLYIDPRMRIFIHGHKVQTKRLSCCLYKPRMYKYTSSRFKTRAEQEVKKAEHVARIAEEKAREAESKARTLEVRLGGDLTRDSRVMLRQVQNRAITLRREADVKKRIKEAKQRALKEPKELNFVFGVNIEHRDLDGMFIYNCSRLIKMYEKVGPQLEGGMACGGVVGVVDVPYLVLEPTHNKQDFADAKEYRHLLRAMGEHLAQYWKDIAIAQRGIIKFWDEFGYLSANWNQPPSSELRYKRRRAMEIPTTIQCDLCLKWRTLPFQLSSVEKDYPDTWVCSMNPDPEQDRCEASEQKQKVPLGTFRKDMKTQEEKQKQLTEKIRQQQEKLEALQKTTPIRSQADLKKLPLEVTTRPSTEEPVRRPQRPRSPPLPAVIRNAPSRPPSLPTPRPASQPRKAPVISSTPKLPALAAREEASTSRLLQPPEAPRKPANTLVKTASRPAPLVQQLSPSLLPNSKSPREVPSPKVIKTPVVKKTESPIKLSPATPSRKRSVAVSDEEEVEEEAERRKERCKRGRFVVKEEKKDSNELSDSAGEEDSADLKRAQKDKGLHVEVRVNREWYTGRVTAVEVGKHVVRWKVKFDYVPTDTTPRDRWVEKGSEDVRLMKPPSPEHQSLDTQQEGGEEEVGPVAQQAIAVAEPSTSECLRIEPDTTALSTNHETIDLLVQILRNCLRYFLPPSFPISKKQLSAMNSDELISFPLKEYFKQYEVGLQNLCNSYQSRADSRAKASEESLRTSERKLRETEEKLQKLRTNIVALLQKVQEDIDINTDDELDAYIEDLITKGD
notes: MORC2, human, full length (residues 1-1032); source: HEK293T, transfected, in cytosolic and nuclear fractions
B2: MORC family CW-type zinc finger 2 (MORC2) (natural protein, human (endogenous in MCF-7 and T47D), UniProt Q9Y6X9 1-1032, looked up)
chain: MAFTNYSSLNRAQLTFEYLHTNSTTHEFLFGALAELVDNARDADATRIDIYAERREDLRGGFMLCFLDDGAGMDPSDAASVIQFGKSAKRTPESTQIGQYGNGLKSGSMRIGKDFILFTKKEDTMTCLFLSRTFHEEEGIDEVIVPLPTWNARTREPVTDNVEKFAIETELIYKYSPFRTEEEVMTQFMKIPGDSGTLVIIFNLKLMDNGEPELDIISNPRDIQMAETSPEGTKPERRSFRAYAAVLYIDPRMRIFIHGHKVQTKRLSCCLYKPRMYKYTSSRFKTRAEQEVKKAEHVARIAEEKAREAESKARTLEVRLGGDLTRDSRVMLRQVQNRAITLRREADVKKRIKEAKQRALKEPKELNFVFGVNIEHRDLDGMFIYNCSRLIKMYEKVGPQLEGGMACGGVVGVVDVPYLVLEPTHNKQDFADAKEYRHLLRAMGEHLAQYWKDIAIAQRGIIKFWDEFGYLSANWNQPPSSELRYKRRRAMEIPTTIQCDLCLKWRTLPFQLSSVEKDYPDTWVCSMNPDPEQDRCEASEQKQKVPLGTFRKDMKTQEEKQKQLTEKIRQQQEKLEALQKTTPIRSQADLKKLPLEVTTRPSTEEPVRRPQRPRSPPLPAVIRNAPSRPPSLPTPRPASQPRKAPVISSTPKLPALAAREEASTSRLLQPPEAPRKPANTLVKTASRPAPLVQQLSPSLLPNSKSPREVPSPKVIKTPVVKKTESPIKLSPATPSRKRSVAVSDEEEVEEEAERRKERCKRGRFVVKEEKKDSNELSDSAGEEDSADLKRAQKDKGLHVEVRVNREWYTGRVTAVEVGKHVVRWKVKFDYVPTDTTPRDRWVEKGSEDVRLMKPPSPEHQSLDTQQEGGEEEVGPVAQQAIAVAEPSTSECLRIEPDTTALSTNHETIDLLVQILRNCLRYFLPPSFPISKKQLSAMNSDELISFPLKEYFKQYEVGLQNLCNSYQSRADSRAKASEESLRTSERKLRETEEKLQKLRTNIVALLQKVQEDIDINTDDELDAYIEDLITKGD
notes: MORC2, human, endogenous in breast cancer cells; source: endogenous, MCF-7 and T47D lysates

Columns and labels:
[1] = target: the molecule itself; test: cross-linking; nuclear fraction of HEK293T cells transfected with Flag-MORC2 (48 h); chemical cross-linking with 0.05% glutaraldehyde on ice for 5 min; immunoblotting
[2] = target: the molecule itself; test: cross-linking; endogenous MORC2; total lysates (NP40 buffer) of MCF-7 and T47D cells treated with DMSO, 1 μM 17-AAG, AUY922, STA-9090 or 10 μM NB for 12 h; 0.05% glutaraldehyde on ice for 5 min; immunoblotting

| Protein | stoichiometry N [1] | stoichiometry N [2] |
| --- | --- | --- |
| B1 | 2 | – |
| B2 | – | 2 |
